Measurements reported in the RNAGym collection of RNA variant scans (doi:10.1073/pnas.2313332121).

B1: TPR t1 (parent)
chain: GACCAAUCUGCCCUCAGAGCUCGAGAACAUCUUCGGAUGCAGAGGAGGCAGGCUUCGGUGGCGCGAUAGCGCCAACGUCCUCAACCUCCAAUGCAUCCCACCACAUGAUGAUGCCUGAAGAGCCUUGGUUUUUUG

Variants of: B1
Experiment: polymerase ribozyme fitness, log enrichment relative to wild type (log ratio); higher = more active; in vitro selection for triplet polymerase activity
How it was run: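 Both subunits of a heterodimeric triplet polymerase ribozyme were given their own mutant library, built by PCR and transcribed. Each library was annealed with a biotinylated primer, the partner subunit and triplets, incubated frozen at −7 °C, and its extended constructs gel-excised, captured on streptavidin beads and amplified by RT-PCR, all in one round done in triplicate. Fitness is the logarithm of genotype enrichment relative to wild-type enrichment, with replicates averaged by inverse-variance weighting. That logarithm is base 2, and Illumina-sequenced genotypes needed ≥10 input reads and ≥1 read per output.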

Row | Variant | polymerase ribozyme fitness (log ratio)
1 | A18U A90C G122A | -2.49
2 | C53A C56U U106C | -0.479
3 | A5C G61A | -0.269
4 | C72G C104U | -0.348
5 | G47C C101A | -2.59
6 | C12G A26U G77A | -2.58
7 | A90U G113U | -2.89
8 | U9C A41C C53G A68G C73U | -5.47
9 | U30C G39A G57U G69U U130G | -5.29
10 | A5G G45A C104A | -2.92
11 | C64U G128A | -1.84
12 | G71U G122A | -0.705
13 | C82U C86A C97A | -4.95
14 | C28U U87A | -2.17
15 | C15A G35C U87A | -5.96
16 | C12A A46U C72G C114U | -4.57
17 | G63C U116A | -3.47
18 | A84U C114U | -2.03
19 | G47C C72G G113A U126A | -5.16
20 | U81A U129C | -1.37
21 | G63A C79G | -3.65

Row | Variant | polymerase ribozyme fitness (log ratio)
22 | C3A G60U | -1.28
23 | A5U C15G C72G A119G A121U | 0.915
24 | C62A U130A | -1.33
25 | G19A A118G C124G | -1.63
26 | C12U G42C C73A G122A | -0.687
27 | C4A G48C G61A U81C U96A | -3.76
28 | C8G G45U G63C A83U A91C U112A | -1.6
29 | C3G U96C G113U | -6.42
30 | A6U C8G C13U C20U G51A G61U | -4.27
31 | C11A C20U G42C C53U | -4.13
32 | A46U G47A A50G G60A | -3.56
33 | C72A C89A C124G | 0.634
34 | C82A C86G | -1.3
35 | C34A G71C U129C | -5.07
36 | U9A A24G G42A G52C C72A | -3.17
37 | G10C C49U C94U | -1.58
38 | C3U A50C C73A C85U G120U | -1.28
39 | C4G G45C C70A | -4.27
40 | A5C G44U G77U | -2.37
41 | U9C G23U C31U A41G G52A C82G A83C A121C | -6.19
42 | C3U G48A A68G | -3.84

Row | Variant | polymerase ribozyme fitness (log ratio)
43 | C12A C70G | -2.78
44 | G69C U81G | -5.01
45 | G45C U55A C56A | -2.11
46 | G36A G61U U96G | -1.71
47 | G60U U116C | 0.0833
48 | C8G G44C C49A C123G | 0.185
49 | C13G U59C C124A | 1.58
50 | U81A C88U | -0.655
51 | C13G A41U C97U | -3.81
52 | C124G U125A U134C | 0.622
53 | U21A A43C C73G U78C | -3.93
54 | C12G G61U G120U | 2.2
55 | C20U G77A U87A G110A | -4.79
56 | A41C G117C | -4.47
57 | G42A A100C | -4.08
58 | C13U A18U A118G | -1.84
59 | C3U C88A | -1.53
60 | A6C C15U C34A G39C | -5.02
61 | G51C C73G | -4.22
62 | C73G U87A G122A | -4.5
63 | C11G G17A G58A U106A U129A | -5.54

Row | Variant | polymerase ribozyme fitness (log ratio)
64 | A18C C72G C124A U129A | -3.56
65 | A43G C76U U109G | -6.79
66 | C97A C102U | -4.94
67 | C12A C22A C40U G58C C86A U112G | -5.73
68 | C13U C22G A41U U78G U81C G122A | -4.41
69 | C8G C11U G120A | 2.17
70 | G17A G19U U55A C82A C114A | -3.12
71 | U38A C101G G120C | -2.43
72 | C11A G60U A83U | -2.13
73 | A26U A46C A90G U106A G127C | -2.32
74 | U7G G10A G19U G113A | -1.32
75 | G36A C56U | -0.261
76 | A29U G48U C70G C123U | -5.55
77 | U59A C70G | -5.27
78 | U38G U78A | -0.0381
79 | C85U C114G | -3.53
80 | G61A U92A | -2.76
81 | A46G G117C | -3.96
82 | C12U C20A A75C C114A G117U | -5.53
83 | A41G U54C G61C C104A | -6.52
84 | C4G C89A | -2.63
